Earlier results, collected in paper PMC10173724.

Target: FABP3 (Homo sapiens) (UniProt P05413)

alpha-synuclein C-terminal peptide Y133F/Y136F 130-140 (from UniProt P37840)
Kd: 2.1 nM
